{"source": "patent US20240226296A9", "about": "“ERT2 MUTANTS AND USES THEREOF” (Senti Biosciences, Inc., priority 2021, published 2024)", "molecules": {"B1": {"name": "SB06142: L354I/L391V/N413D/M421L/S463P/M517A/H524L (protein)", "chain": "SAGDMRAANLWPSPLMIKRSKKNSLALSLTADQMVSALLDAEPPILYSEYDPTRPFSEASMMGLLTNLADREIVHMINWAKRVPGFVDLTLHDQVHLLECAWLEILMIGVVWRSMEHPVKLLFAPNLLLDRDQGKCVEGLVEIFDMLLATSSRFRMMNLQGEEFVCLKSIILLNSGVYTFLPSTLKSLEEKDHIHRVLDKITDTLIHLMAKAGLTLQQQHQRLAQLLLILSHIRHASNKGMELLYSMKCKNVVPLYDLLLEAADAHRLHAPTSRGGASVEETDQSHLATAGSTSSHSLQKYYITGEAEGFPATA"}, "B2": {"name": "SB06136: L384M/L391V/N413D/M421L/S463P/H524L (protein)", "chain": "B1 chain with I73L, L103M, A236M"}, "B3": {"name": "SB06145: L409V/N413D/Q414E/M421L/S463P/H524L (protein)", "chain": "B1 chain with I73L, V110L, L128V, Q133E, A236M"}}, "key": {"[1]": {"details": "following a typical clinical dose of tamoxifen; cited from earlier work"}, "NK cells": {"tested_on": "NK cells", "experiment": "Validation of ERT2 mutants with mCherry reporter in NK cells", "assay_type": "cell-based", "details": "primary NK cells", "method": "After 10 days of feeder cell activation, NK cells were co-transduced with ERT2 mutant virus and reporter SB01066 virus (Experimental Set-up 1). On Day 2 after transduction, transduced NK cells were treated with endoxifen or 4-OHT at a range of concentrations of 0 nM, 0.01 nM, 0.1 nM, 1 nM, and 10 nM. On Day 4, cells were checked for mCherry expression by flow cytometry."}}, "note": "Residue numbers refer to the chain shown, from its start. In names and notes the source's numbering stands."}
{"molecule": "CC/C(=C(\\c1ccccc1)c1ccc(OCCN(C)C)cc1)c1ccccc1", "note": "[tamoxifen]", "values": [{"measurement": "average peak plasma concentration", "setting": "[1]", "result": "approximately 40 ng/mL"}]}
{"molecule": "B1", "values": [{"measurement": "4-OHT concentration at which variant is sensitive", "setting": "NK cells", "result": 0.1, "unit": "nM"}, {"measurement": "endoxifen concentration at which variant is sensitive", "setting": "NK cells", "result": 0.1, "unit": "nM"}]}
{"molecule": "B2", "values": [{"measurement": "4-OHT concentration at which variant is sensitive", "setting": "NK cells", "result": 0.1, "unit": "nM"}, {"measurement": "endoxifen concentration at which variant is sensitive", "setting": "NK cells", "result": 0.1, "unit": "nM"}]}
{"molecule": "B3", "values": [{"measurement": "4-OHT concentration at which variant is sensitive", "setting": "NK cells", "result": 0.1, "unit": "nM"}, {"measurement": "endoxifen concentration at which variant is sensitive", "setting": "NK cells", "result": 0.1, "unit": "nM"}]}
